Values quoted from earlier work, collected in publication PMC12455044.

Biological target: thrombin (Homo sapiens) (UniProt P00734)

PAR-1 (from UniProt P25116)
Kd: 10 nM
